US20240409617A1 (published 2024)

Key:
S1 = assay: BLI
S1-biotin(ACRO) = assay: BLI

B1: Ab 39 (scFv, V domains shown)
VH: QVTLKESGPTLVKPTQTLTLTCTLSGVSLDTIGMRVSWIRQPPGKALEWLARIDWDDDKFYSTALKTRLTISKDTSKNQVVFTMTSMDPVDTATYYCARSGLLYDLDVWGRGTLVTVSS
VL: QSVVTQPPSVSGAPGQRVTISCTGSDSDIGANFVQWYQQLPGTAPKLLIWRNTNRPSGVPDRFSASKSGTSASLAITGLQAEDEADYFCQSYDSSLSAYVFGGGTKVTVL
Which Kd (S1) does the source give for B1 here?
The Kd was less than 0.001 nM.

B2: Ab 38 (scFv, V domains shown)
VH: QVTLKESGPTLVKPTQTLTLTCTFSGFSLTTSGVSVGWIRQPPGKALEWLALIHWDDDKRYSPSLRSRLTITRDTSKNQVVLTVTDMDPADTGTYYCASFIMTVYAEYFEDWGQGTLVTVSS
VL: EIVLTQSPATLSVSPGERATLSCRASQSVSSNLAWYQQKPGQAPRLLMYDVSTRATGIPARFSGSGSGTEFSLTISSLQSEDFAVYYCQQRGAWPLTFGGGTKVEIK
With B2 as the binder, how does the Kd (S1) read?
Its Kd is 0.22 nM.

B3: Ab 29 (scFv, V domains shown)
VH: QVQLQQSGPGLVKPSQTLSLTCAISGDSVSSYSDAWNWIRQSPSRGLEWLGRTYYRSKWYNDYAVSVKSRITINPDTSKNQFSLQLSSVTPEDTAVYYCAREIVATTPFRNYYYGMDVWGQGTTVTVSS
VL: NFMLTQPHSVSESPGNTVTISCTRTSGSIASNYVQWYQQRPGSSPTTVIFQDKLRPSGVPDRFSGSIDSSSNSASLTISGLKTEDEADYYCQSYDSSSLWVFGGGTKLTVL
Which Kd (S1) does the source give for B3 here?
The Kd was less than 0.001 nM.

B4: Ab 16 (scFv, V domains shown)
VH: QVQLVQSGGGVVQPGRSLRLSCAASGFTFSNYGMHWVRQAPGKGLEWVALIWERGSKKDYADSVKGRFTVSRDNSKNTLYLQMNSLRPEDTAVYFCAREGISMTGAEYFQHWGQGTLVTVSS
VL: QSVLTQPPSVSGSPGQRVTMSCTGSSSNIGAGYDVHWYQQVPGAAPRLLIYGTNNRPSGVPDRFSGSKSGTSASLTITGLQAEDEADYYCQSYDNSLTDPYVFGTGTKVTVL
Which Kd (S1) does the source give for B4 here?
The Kd was 2.18 nM.

What about the Kd (S1-biotin(ACRO)) of the same binder?
The Kd was 2.18 nM.

B5: Ab 17 (scFv, V domains shown)
VH: QVQLVQSGGGVVQPGRSLRLSCAASGFTFDDYAMHWVRQVPGKGLEWVSGIDWNSGVIGYADSVKGRFTISRDNVKNSLYLQMNSLRTEDSALYYCAKDIGPGGSGSYYAFDIWGQGTTVTVSS
VL: QSALTQPASVSGSPGQSITISCTGTSSDVGGSKYVSWYQQHPGKAPKVMIYDVTKRPSGVPDRFSGSKSGNTASLTISGLQAEDEADYYCAAWDDSLNGVVFGGGTKLTVL
B5 was tested. Which Kd (S1) did it give?
The Kd was 0.716 nM.

What about the Kd (S1-biotin(ACRO)) of the same binder?
Its Kd is 0.716 nM.

B6: Ab 36 (scFv, V domains shown)
VH: QVQLQQSGPGLVKPSQTLSLTCAIFGDSVTSNSAAWNWIRQSPSRGLEWLGRTYYSSKWYNDYAVSVKSRVTINADTSKNQLSLQLNSVTPEDTAVYYCARGWLRLSFDPWGQGTLVTVSS
VL: NFMLTQPHSVSESPGKTVTISCTGSSGSIASNYVQWLQQRLGSAPTTVIYEDNQRPSGVPDRFSGSIDSSSNSASLTISGLKTEDEADYYCQSYDPNNHGVVFGGGTKLTVL
How did the Kd (S1) turn out when B6 was run?
The Kd was 0.0306 nM.

B7: Ab 37 (scFv, V domains shown)
VH: QVQLVQSGAEVKKPGASVKVSCKASGYTFTSYGISWVRQAPGQGLEWMGWISTYNGNTNYAQKLQGRVTMTTDTSTSTAYMEVRSLRSDDTAVYYCARDVFGHFDYWGQGTLVTVSS
VL: NFMLTQPHSVSESPGKTVLISCTRSSGNIATNYVQWYQQRPGSAPTTVIYEDNQRPSGVPDRFSGSIDSSSNSASLTISGLKTEDEADYYCKSYDDGNHVFGGGTKLTVL
Which Kd (S1) does the source give for B7 here?
Its Kd is 0.907 nM.

B8: Ab 18 (scFv, V domains shown)
VH: EVQLVQSGGGVVQPGRSLRVSCAASGFSFSRYGMHWVRQAPGKGLEWVAFIRHDGSKKYYADSVEGRFTISRDNSRNTVSLEMNSLRGEDTAVYYCAKDGRLEAALDDWGQGTLVTVSS
VL: NFMLTQPHSMSGSAGKTVTVSCIRSSGSIANNFVQWYQQRPGSAPTTVIYEDNQRPSGVPDRFSGSIDSSSNSASLTISGLKTEDEADYYCQSYDSSNLVFGGGTRLTVL
B8 was tested. Which Kd (S1) did it give?
Its Kd is 0.121 nM.

What about the Kd (S1-biotin(ACRO)) of the same binder?
Its Kd is 0.121 nM.

B9: Ab 32 (scFv, V domains shown)
VH: QVQLVQSGAEVKKPGESLKISCKGSGYSFTSYWIGWVRQMPGKGLEWMGIIYPGDSDTRYSPSFQGQVTISADKSISTAYLQWSSLKASDTAMYYCARGWQWHDYWGQGTLVTVSS
VL: QTVVTQEPAVSVALGQTVRITCQGDSLRSYYASWYQQKPGQAPVLVVYDKDKRPSGIPDRFSGSTSGNTASLTITGAQAEDEADYYCNSRDRSDNHVVFGGGTKLTVL
Which Kd (S1) does the source give for B9 here?
Its Kd is 0.168 nM.

B10: Ab 31 (scFv, V domains shown)
VH: QVQLVQSGAEVKKPGSSVKVSCKASGGTFSSYTISWVRQAPGQGLEWMGGIIPILGTPNYAQKFQDRVAITADKSTSTAYMELSSLRSEDTAVYYCAVGSGWYSGFDYWGQGTLVTVSS
VL: NFMLTQPHSVSESPGKTVTISCTGSSGSIASNYVQWYQQRPGSAPTTVIYEDSQRPSGVPDRFSGSIDSSSNSASLTISGLKTEDEADYYCQSFHNSNPVIFGGGTKLTVL
For B10, which Kd (S1) is on record?
Its Kd is 2040 nM.

B11: Ab 20 (scFv, V domains shown)
VH: QVQLVQSGGGSVKPGGSLRLSCAASGYRLSDYYMHWVRQAPGKGLEWVANIKQDGSEKYYVDSVKGRFTISRDNAKNSLYLQMNSLRAEDTAVYYCARVRGWSRGYFDYWGQGTLVTVSS
VL: NFMLTQPHSVSESPGKTVTISCTGSSGSIASNYVQWYQQRPGSAPTTVIYEDNQRPSGVPDRFSGSIDSSSNSASLLISGLKTEDEADYYCQSYDSSNHWVFGGGTKLTVL
What does the source list for B11?
Kd (S1): 5.01 nM; Kd (S1-biotin(ACRO)): 5.01 nM

B12: Ab 13 (scFv, V domains shown)
VH: QVTLKESGPKLVKPTQTLTLTCTFSGFSLSTSGVGVGWIRQPPGKALEWLALIYWDDDKRYSPSLKSRLTIAKDTSKYQVVLTMTNMDPVDTATYYCARISGSGYFYPFDIWGQGTMVTVSA
VL: NFMLTQPHSVSESPGKTVTISCTRSSGSIASNYVQWYQQRPGSAPTTVIYEDNQRPSGVPDRFSGSIDSSSNSASLTISGLKTEDEADYYCQSYDSSNLWVFGGGTKLTVL
B12 was tested. Which Kd (S1) did it give?
The Kd was 1.14 nM.

What about the Kd (S1-biotin(ACRO)) of the same binder?
Its Kd is 1.14 nM.

B13: Ab 21 (scFv, V domains shown)
VH: QVQLVQSGGGLVQPGGSLRLSCATSGFTFDDYAMHWVRQAPGKGLEWVSGISWNSGSIGYVDSVKGRFTISRDNRNNKVYLQMNNLRAEDTAVYYCARDWWGSIDHWGLGTLVTVSS
VL: QSALTQPRSVSGSPGQSVTISCTGTSSDVGGYDYVSWYQQHPGKAPKLIIYDVSKRPSGVPDRFSGSKSGNTASLTVSGLQAEDEADYYCSSYTSSSPVVFGGGTKLTVL
Which Kd (S1) does the source give for B13 here?
Its Kd is 1.28 nM.

What about the Kd (S1-biotin(ACRO)) of the same binder?
The Kd was 1.28 nM.

B14: Ab 8 (scFv, V domains shown)
VH: QVQLVQSGAEVKKPGSSVKVSCKASGGTFSSYAISWLRQAPGQGLEWMGWINPNSGGTNYAQKFQGRVTMTRDTSISTAYMELSRLRSDDTAVYYCARGSGGYYLGWGQGTLVTVSS
VL: QPGLTQPPSVSKGLRQTATLTCTGNSNNVGNQGAAWLQQHQGHPPKLLSYMNNNRPPGISERFSASRSGNTASLTITGLQPEDEADYYCSAWDSSLSRWVFGGGTKLSVL
Which Kd (S1) does the source give for B14 here?
Its Kd is 325 nM.

B15: Ab 34 (scFv, V domains shown)
VH: QVQLVQSGVEVKKPGESLKISCKGSGYSFTSYWIGWVRQMPGKGLEWMGIIYPGDSDTRYSPSFQGQVTISADKSISTAYLQWSSLKASDTAMYYCARTTYSYGSFDYWGQGTLVTVSS
VL: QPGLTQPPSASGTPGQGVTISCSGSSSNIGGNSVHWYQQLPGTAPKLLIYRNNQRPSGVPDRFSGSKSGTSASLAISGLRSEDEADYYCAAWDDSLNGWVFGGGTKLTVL
With B15 as the binder, how does the Kd (S1) read?
The Kd was 0.184 nM.
